Legend:
S52 peptide = test: peptide EIA, Nunc-Immuno and CovaLab plates
US1 peptide = test: peptide EIA, Nunc-Immuno and CovaLab plates
S66 peptide = test: peptide EIA, Nunc-Immuno and CovaLab plates
S85 peptide [1] = test: peptide EIA, Nunc-Immuno and CovaLab plates
EH1 peptide = test: peptide EIA, Nunc-Immuno and CovaLab plates
G4720 peptide = test: peptide EIA, Nunc-Immuno and CovaLab plates
G3895 peptide = test: peptide EIA, Nunc-Immuno and CovaLab plates
S83 peptide = test: peptide EIA, Nunc-Immuno and CovaLab plates
DH2 peptide = test: peptide EIA, Nunc-Immuno and CovaLab plates
S82 peptide = test: peptide EIA, Nunc-Immuno and CovaLab plates
S87 peptide = molecular target: T1, S87 peptide; test: peptide EIA, Nunc-Immuno and CovaLab plates
T1 construct: Synthetic HVR 1 peptide
T1 peptide: CTGFSKHNNMGSQQKV

S67 peptide [2] = test: peptide EIA, Nunc-Immuno and CovaLab plates
S54 peptide = test: peptide EIA, Nunc-Immuno and CovaLab plates
S85 peptide [3] = test: IAsys biosensor, BSA-HVR1 peptide conjugate
S67 peptide [4] = test: IAsys biosensor, BSA-HVR1 peptide conjugate
G4309 peptide = test: peptide EIA, Nunc-Immuno and CovaLab plates
S53 peptide = test: peptide EIA, Nunc-Immuno and CovaLab plates

| Binder | EIA Sample/Cutoff ratio (S/CO) (S52 peptide) | EIA Sample/Cutoff ratio (S/CO) (US1 peptide) | EIA Sample/Cutoff ratio (S/CO) (S66 peptide) | EIA Sample/Cutoff ratio (S/CO) (S85 peptide [1]) | EIA Sample/Cutoff ratio (S/CO) (EH1 peptide) | EIA Sample/Cutoff ratio (S/CO) (G4720 peptide) | EIA Sample/Cutoff ratio (S/CO) (G3895 peptide) | EIA Sample/Cutoff ratio (S/CO) (S83 peptide) | EIA Sample/Cutoff ratio (S/CO) (DH2 peptide) | EIA Sample/Cutoff ratio (S/CO) (S82 peptide) | EIA Sample/Cutoff ratio (S/CO) (S87 peptide) | EIA Sample/Cutoff ratio (S/CO) (S67 peptide [2]) | EIA Sample/Cutoff ratio (S/CO) (S54 peptide) | Kd (S85 peptide [3]) [nM] | Kd (S67 peptide [4]) [nM] | EIA Sample/Cutoff ratio (S/CO) (G4309 peptide) | EIA Sample/Cutoff ratio (S/CO) (S53 peptide) |
| --- | --- | --- | --- | --- | --- | --- | --- | --- | --- | --- | --- | --- | --- | --- | --- | --- | --- |
| mAb 15H4 (antibody, V domains shown) VH: QVQLQQSGAELARPGASVKLSCKASGYTFTRYWMQWVKQKPGQGLEWIGAIYCGDGDTRFTQKFKGKATLTADKSSSTAYMQLSNLASEDSAVYYCVIYGNYYDAMDYWGQGTSVTVSS VL: DIVMTQAPLSMPVSLGDQASISGRSSQSLVHSNGNTYLHWYLQKPGQSPKLLIHKVSKRFSGVPDRFSGSGSGTDFTLKIRRVEAEDLGVYFCSQNTHVPFTFGGGTK | 1.9 | 21 | 24.8 | 24.4 | 16.9 | 14.2 | 7.9 | 2.3 | 12.9 | 3.3 | 8.9 | 25.1 | 3.9 | 58.5 | 110 | – | – |
| mAb 2P24 (antibody, V domains shown) V domain 1: EFQLQQSGAELVRPGPLVTLSCKASGFNIKDYYMNWVKQRPEQGLEWIGRIDPKNGNALYDPKFQDKARITADTSSNTAYLQLNSLTSEATAVYYCSSGWLDYWGQGTSLAVYS V domain 2: DIVMTQSPASLAVFRGQRATISYRASKSVSTSGYSYMHWNQQKPGQPPRLLIYLVSNLESGVPARFSGSGSGTDFTLNIHPVEEEDAATYYCQHIRELTAFGGGTK | 1.4 | – | 12.7 | 25.6 | 24.8 | 24 | 25.4 | 11.5 | 18.6 | 16.1 | – | 24.7 | 18.9 | 24.3 | 18.1 | 1.1 | 5.7 |

— patent WO2002045743A2 (dated 2002)
